One variant from IntAct's records for PubMed 16488887 can be followed below.

B1: Prospero homeobox protein 1 (Homo sapiens), Q92786 (parent)
chain: MPDHDSTALLSRQTKRRRVDIGVKRTVGTASAFFAKARATFFSAMNPQGSEQDVEYSVVQHADGEKSNVLRKLLKRANSYEDAMMPFPGATIISQLLKNNMNKNGGTEPSFQASGLSSTGSEVHQEDICSNSSRDSPPECLSPFGRPTMSQFDMDRLCDEHLRAKRARVENIIRGMSHSPSVALRGNENEREMAPQSVSPRESYRENKRKQKLPQQQQQSFQQLVSARKEQKREERRQLKQQLEDMQKQLRQLQEKFYQIYDSTDSENDEDGNLSEDSMRSEILDARAQDSVGRSDNEMCELDPGQFIDRARALIREQEMAENKPKREGNNKERDHGPNSLQPEGKHLAETLKQELNTAMSQVVDTVVKVFSAKPSRQVPQVFPPLQIPQARFAVNGENHNFHTANQRLQCFGDVIIPNPLDTFGNVQMASSTDQTEALPLVVRKNSSDQSASGPAAGGHHQPLHQSPLSATTGFTTSTFRHPFPLPLMAYPFQSPLGAPSGSFSGKDRASPESLDLTRDTTSLRTKMSSHHLSHHPCSPAHPPSTAEGLSLSLIKSECGDLQDMSEISPYSGSAMQEGLSPNHLKKAKLMFFYTRYPSSNMLKTYFSDVKFNRCITSQLIKWFSNFREFYYIQMEKYARQAINDGVTSTEELSITRDCELYRALNMHYNKANDFEVPERFLEVAQITLREFFNAIIAGKDVDPSWKKAIYKVICKLDSEVPEIFKSPNCLQELLHE
partner: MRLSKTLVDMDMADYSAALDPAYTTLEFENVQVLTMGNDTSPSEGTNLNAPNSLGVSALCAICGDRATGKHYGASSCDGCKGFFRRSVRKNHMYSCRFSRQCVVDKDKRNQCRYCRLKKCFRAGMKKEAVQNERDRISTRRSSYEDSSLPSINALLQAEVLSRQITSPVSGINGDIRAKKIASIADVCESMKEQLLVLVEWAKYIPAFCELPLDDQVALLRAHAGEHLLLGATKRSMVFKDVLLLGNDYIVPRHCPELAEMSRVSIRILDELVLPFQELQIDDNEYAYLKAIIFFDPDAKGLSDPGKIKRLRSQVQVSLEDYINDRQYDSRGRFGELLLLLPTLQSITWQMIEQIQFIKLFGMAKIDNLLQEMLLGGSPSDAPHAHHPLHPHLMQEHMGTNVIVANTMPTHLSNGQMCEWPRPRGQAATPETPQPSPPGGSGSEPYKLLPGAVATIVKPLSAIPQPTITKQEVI

This assay covers variants of B1. Particulars: with hnf4a_human HNF4A.
On to L70A;L73A, for which the “effect of a mutation on the interaction” value was “disrupting interaction”.
